17 sequences from the DeepSol protein solubility set can be followed below.

A short description of this data set: soluble on expression in E. coli; label from the status in PepcDB or PDB records.
Take “IINGEDCSPHSQPWQAALVMENELFCSGVLVHPQWVLSAAHCFQNSYTIGLGLHSLEADQEPGSQMVEASLSVRHPEYNRPLLANDLMLIKLDESVSESDTIRSISIASQCPTAGNSCLVSGWGLLANGRMPTVLQCVNVSVVSEEVCSKLYDPLYHPSMFCAGGGQDQKDSCNGDSGGPLICNGYLQGLVSFGKAPCGQVGVPGVYTNLCKFTEWIEKTVQA”: the “soluble on expression in E. coli” value is on record as “soluble”.
For the sequence “IKDFDYNIGFNMSTTKNKVVELSDADQVLQGEGLKYGTEHFPTETRVGKPIGAFYLYRTDGIFQSMDEVNAHVNKDGQLLQPNAQPGDIRFKDLDGNGSIDAGDKEYCGSGIPTLEANLNLSFGYKGFDLSIVLGSAWNFKLYNGNKYFYEGMNSKSNMLKSTLNAWTPDNRNTDVPRAVYQDPNGNMKESDRFLENGDFVRLRQAQLGYTLPKSLMQKFYIEKLRFYVSGENLFTITGYDGIDPEFSRASVLNTGVDKLIYPFTRSFTVGAQLTF”, the “soluble on expression in E. coli” value is “not soluble”.
Then “ILQTTVDGNSTAISNLKSDISSNGLAITDLQDRVKSLESTASHGLSFSPPLSVADGVVSLDMDPYFCSQRVSLTSYSAEAQLMQFRWMARGTNGSSDTIDMTVNAHCHGRRTDYMMSSTGNLTVTSNVVLLTFDLSDITHIPSDLARLVPSAGFQAASFPVDVSFTRDSATHAYQAYGVYSSSRVFTITFPTGGDGTANIRSLTVRTGIDT”, with “soluble”; and “INPPQHKQFQNLMPMQPRRYPEGKVLPDREREFPNTFPEHSSPLLLPKQELDMRWRGPHPLPGY”, with “not soluble”.
“IPADELFSRDALRKVEDIRNKTKNKSYIRKALKKPWNILVGSLPVGFDFPARIIAEIVDAPKLSLEGLVKKANYYLSEGADIVDIGMVAGETNVKFLDVIPEFREVLGREVPISLDSLNAKELEAGLDFVDMILSVDWSNVEDLVTDKPVVLIPTDMKNGYFPLNPRDRVESLEKLKEKALSLGYKRIIADLILEHYPGFSRSIVAFSLYRDRNREDIMLAGVGNVTEMTDADSPGINALLAGIASELRISMLLTTEVSRKCTGSIRELRRAIDMTLLGGVKDVGLNLLLLKEKKDKGLRFEISKNIVEAKRKEVKLEDTYFRIFVDNGKIYVNAYKGMNLVITIVGNEPNEIMDTILDYFSLSPRHAFYLGRELEKAYTALKLRRSYAQEEELFRDFYTK”: the “soluble on expression in E. coli” value is listed as “not soluble”.
Then “IRHEITSRTSVSVLVNRCNWFCTSPKCSGLTVMGCLCVAMSVAKKDKPTMSVTALINWARPLPPGQQQQPMTPTSPGNMLQPMATPSNLPTVDCSLDIQWLNLEGGFMSPMSPPEMKPDTAMLDGLRDDSTPPPAFKNYPPNHPLSGSKHLCSICGDRASGKHYGVYSCEGCKGFFKRTVRKDLTYACREERNCIIDKRQRNRCQYCRYQKCLACGMKREAVQEERQRAARGTEDAHPSSSVQVQELSIERLLEMESLVADPSEEFQFLRVGPDSNVPPKFRAPVSSLCQIGNKQIAALVVWARDIPHFSQLEMEDQILLIKGSWNELLLFAIAWRSMEFLTEERDGVDGTGNRTTSPPQLMCLMPGMTLHRNSALQAGVGQIFDRVLSELSLKMRTLRVDQAEYVALKAIILLNPDVKGLKNRQEVEVLREKMFLCLDEYCRRSRSSEEGRFAALLLRLPALRSISLKSFEHLFFFHLVADTSIAGYIRDALRNHAPPIDTNMM”, with “soluble”.
For the sequence “KAEMRHMENKVLESELRQRAVVEASLLETQGRLLEQLESAPEAIICLREDQRIRFANEAACKLFKRSLEQLKRS”, the “soluble on expression in E. coli” value is “not soluble”.
With “KCGFSYGVGFNVFNYKAVVTKYNNPEGIIYNNHTGLAANKGYYEGMDIGEIWGYRADDLFLSNREIDDYLRNVNLTAFKSNDLWRRGDLKYIDSNGDGRVDGGKGTLADHGDLQIIGNTTPKYSFGINLNLGYKGFEVSTLLQGVAKRDFPISGSNYMFGGNNYNFKEHLDYFSTENPNGYLPRLTGWKDDKDFLVNTGYNTTRYLLNAAYMRMKNLTVAYTFNKKQLKHIGISNLKVYVTCDNLFTVTKLPKQFDPETLNQVNMSAGGDAQNTAPGLTSPMKQNGNGMVYPMNRNFVFGLDFTF” the entry was “not soluble”; with “KDWRDKDQSDGFGKVYVTEKVAQIKQIPFDASKLHSSPQMAAQHNMVDDGSGKVEIWRVENNGRIQVDQNSYGEFYGGDCYIILYTYPRGQIIYTWQGANATRDELTTSAFLTVQLDRSLGGQAVQIRVSQGKEPVHLLSLFKDKPLIIYKNGTSKKGGQAPAPPTRLFQVRRNLASITRIVEVDVDANSLNSNDVFVLKLPQNSGYIWVGKGASQEEEKGAEYVASVLKCKTLRIQEGEEPEEFWNSLGGKKDYQTSPLLETQAEDHPPRLYGCSNKTGRFVIEEIPGEFTQDDLAEDDVMLLDAWEQIFIWIGKDANEVEKKESLKSAKMYLETDPSGRDKRTPIVIIKQGHEPPTFTGWFLGWDSSKW”, “soluble”; with “KDWSLDVTANISALRNKVKSLGEGVQPIKAEVMMSGSFNDRPTITKPGLPIGTFWGYVVEGFDNDGNFIFQDNNGSVNGVLTGKPDGKIDENDKTDIGNPHPDFTYGLNINVGYKNWDLTAFFQGTQGNDIFALMKYDWYFGGANSATLKDAFYNSWTPQNPNAEAPKLNSKNSSGINSLPSTFYVEDGSYFRCKNLQIGYSFNKKLLQKFHIESFRIYAGVQNLFTITKYPLYDPEVSSNVLFDRGVDGFWQAQESPHEATMNSRVYNLGVNLTF”, “not soluble”.
“KETAAAKFERQHMDSGGGGSGHMENGYTYEDYKNTAEWLLSHTKHRPQVAIICGSGLGGLTDKLTQAQIFDYGEIPNFPRSTVPGHAGRLVFGFLNGRACVMMQGRFHMYEGYPLWKVTFPVRVFHLLGVDTLVVTNAAGGLNPKFEVGDIMLIRDHINLPGFSGQNPLRGPNDERFGDRFPAMSDAYDRTMRQRALSTWKQMGEQRELQEGTYVMVAGPSFQTVAECRVLQKLGADAVGMSTVPEVIVARHCGLRVFGFSLITDKVIMDYESLEKANHEEVLAAGKQAAQKLEQFVSILMASIPLPDKAS”: the “soluble on expression in E. coli” value is given as “soluble”.
Then “KGDWAWQAGFSLSGVKNEITDMKGVEDIKDNTINREGEAIGSYYGLKAIGIYRTQADLDRVNANGQKILQNNQEPQLGDIMYEDIDNNGNINDADRTIIGNPFPKMQYSFNLGFSYKDFDVNTFWQGIAGVYRYNWDETTISNGGNKTSRWLDRWSESNPNGSMPRLGGTINNNYSSFWLTKGDYLRLKNLEIGYTFRQREFLTKLGVQSIRLYLAGTNLLTFTSLDDYDPEKLSTDSRNDVHPNTRTYSFGVNVKF”, with “not soluble”.
With “KGESYKGKVAVASVVLNRTEKKGFPDTIRGVIYQKNAFEPVANGSINQKPDKESIEAAEEALSSKNRETDAIFFYNPKTASDNWIRSRKIVEKIGRHVFAV” the entry was “not soluble”; with “KIGERMLGTDPVTGESVVAKMGRYGAMVQKGRTDKENGIKAQFASLQPGQSIESITLEEALELFLLPKKLGQYEDADVMVAVGRFGPYIKHAGKFVGLPKDTEPLSVSLDDAIKYIADKREKEEKSLIKGFAEDPEMEIRTGRFGVYIKYKGKNYKVPKTVEDPEKLTLEECLKYVEEGETKPAKGKKKAPAKKTSAKKTAKK”, “not soluble”.
Then “KKNNVYPELEAFIGKEIIFSDKNFNTVGNKAFKDQFLLISYVDSGNCTPCSLEKMQYMKTNKRRLLDTHTGVLMIVHEKDTFTVNEVFRQMHVSYPIFFDSLGCFKKENGIFDNPLYQDFVIDRSNKVVWLGNPLRNKQSWQQYEKAISMLMD”, with “not soluble”; and “KKPMFLCVLSSTKTAHIPKLSAAGKTAELTDYTPAGDAELMETGNIISVPVLPMTPPYDTPTPAIMTRSALKLTDAPYHFINSGLIVTPDVPCIDLKANPGEDIREPVAVMDVQGIYERAKLLAKRLRNQADHVVIGESIPGGTTTAMGVLMALGYNGNVSSSADENPLELKKQVVEEGMKASGLTFGCLKDDPMKAIACMGDPMMPAVAGLVAGFQDTDTSVVLAGGTQMAAVYALIKHMGLNTEKIAIATTRYVVEDKSANFIQLTTTLGVPVVYVADPGFGKSSMKGLHRYETGTIKEGAGAGGAMYLAG”, with “not soluble”; and “KNCCVYDMATNTLVDAAPYGERSSDYQLATLFHNPGNNNEYLLSQVIEVLDDICQSKEIASETKTKAHWLLSYEPRLPDGDKVKRLLSILEQTLEAFSK”, with “not soluble”.
